Patent US20180251563A1 (SUBDOMAIN, published 2018)

What follows are binders tested against PD-L1 (target of Example 25) (UniProt Q9NZQ7 19-238, limits assumed) (assay: library selection; assay not described).
Chain of PD-L1 (target of Example 25) (Q9NZQ7 19-238 limits assumed): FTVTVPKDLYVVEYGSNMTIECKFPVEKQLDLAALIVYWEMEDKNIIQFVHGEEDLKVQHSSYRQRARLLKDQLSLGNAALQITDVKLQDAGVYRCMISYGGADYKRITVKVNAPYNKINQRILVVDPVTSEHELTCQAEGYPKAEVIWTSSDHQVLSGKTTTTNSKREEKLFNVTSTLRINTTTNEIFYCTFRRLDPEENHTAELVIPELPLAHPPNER

| Binder | binding result |
| --- | --- |
| SEQ ID NO 184 (designed binder, also called pb06) MGSWYEFDDRLNAIHDRLQALGGSEAELAAFEKEIAAFESELQAYKGKGNPEVEDLRDDAAFIRRFLQAYRHN | binds |
| SEQ ID NO 181 (designed binder) MGSWNEFHDRLNAIHARLHALGGSEAELAAFEKEIAAFESELQAYKGKGNPEVENLRDDAAFIRRFLQAYRHN | binds |
| SEQ ID NO 183 (designed binder) MGSWKEFDDRLNAIKARLQALGGSEAELAAFEKEIAAFESELQAYKGKGNPEVEDLRDDAAFIRRFLQAYRHN | binds |

Each binder was assayed against T1, DR5-Fc (UniProt O14763 56-182, limits assumed) (assay: phage ELISA, target-Fc against non-specific control).
T1 construct: purified recombinant target-Fc protein; not shown: Fc
T1 sequence (O14763 56-182 limits assumed): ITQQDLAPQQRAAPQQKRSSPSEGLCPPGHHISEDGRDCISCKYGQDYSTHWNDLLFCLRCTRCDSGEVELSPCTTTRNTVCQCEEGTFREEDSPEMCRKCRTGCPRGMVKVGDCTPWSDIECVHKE
Method: (§1) Selections were also performed using F1, F2, F3, C1 & C2 trinucleotide phosphoramidite libraries. In most cases, libraries were pooled prior to use in selection. By combining equal volumes of the individual libraries, Pool F (libraries F1, F2 and F3) and Pool C (libraries C1 and C2) were generated. These libraries were used in selections for DBDpp binders to 4-1BB/CD137 as well as a larger panel of purified recombinant “target”-Fc proteins, including CD47, CTLA4, DR5, KIR, LAG3, OX40, PD1, PD-L1 and TIM3. (Many of these targets are considered immuno-regulatory factors (Pardoll et al., Nat. Rev. Cancer 12:252-264 (2012)). After incubation of the target with the pools of DBDpp phage libraries, bound phage-target complexes were captured and separated from unbound phage with protein A beads (target proteins were Fc fusions). After three rounds of selection, rescued phage clones were screened by ELISA for binding to the selected target.
(§2) For each target, approximately 90 DBDpp phage clones were screened by ELISA for binding to the target protein and as well as a non-specific control (e.g., IgG1-Fc). […] In some instances, for the ELISA screening plate in which the majority of DBDpp clones were positive, the entire plate was sequenced.

| Binder | ELISA ratio (target to background) [ratio] |
| --- | --- |
| SEQ ID NO 28 (designed binder) MGSWVYFKEHLAWIKTELEALGGSEAELAHFEHSIADFEMSLQFYKGKGNPEVEALRKEAAAIRDELQAYRHN | 12.1 |
| SEQ ID NO 32 (designed binder) MGSWIYFKEHLAYIKKELEALGGSEAELAHFESAIAVFESTLQYYKGKGNPEVEALRKEAAAIRDELQAYRHN | 10.7 |
| SEQ ID NO 26 (designed binder) MGSWNYFKDHLAWIKNSLEALGGSEAELAHFETAIASFERQLQEYKGKGNPEVEALRKEAAAIRDELQAYRHN | 13 |
| SEQ ID NO 31 (designed binder) MGSWHYFKGHLAEIKNHLEALGGSEAELAHFERAIAAFERSLQWYKGKGNPEVEALRKEAAAIRDELQAYRHN | 10.8 |
| SEQ ID NO 29 (designed binder) MGSWFYFKQHLAWIKSYLEALGGSEAELAHFERAIAAFEQHLQMYKGKGNPEVEALRKEAAAIRDELQAYRHN | 11.8 |
| SEQ ID NO 30 (designed binder) MGSWHYFKDHLAEIKGLLEALGGSEAELAHFEMAIADFEHNLQYYKGKGNPEVEALRKEAAAIRDELQAYRHN | 11.4 |
| SEQ ID NO 27 (designed binder) MGSWLYFKEHLAHIKAWLEALGGSEAELAHFELAIADFEYHLQEYKGKGNPEVEALRKEAAAIRDELQAYRHN | 12.3 |
| SEQ ID NO 34 (designed binder) MGSWWLFKDHLAEIKTALEALGGSEAELAHFEMAIAAFEKQLQYYKGKGNPEVEALRKEAAAIRDELQAYRHN | 9.75 |
| SEQ ID NO 33 (designed binder) MGSWTYFKEHLAEIKYMLEALGGSEAELAHFEVAIADFEKMLQYYKGKGNPEVEALRKEAAAIRDELQAYRHN | 10.3 |

What follows are binders tested against T2, recombinant, biotinylated, Human 4-1BB/TNFRSF9/CD137-Fc (human, UniProt Q07011 24-186, biotinylated (F2NNK selection)) in the same assay as above.
T2 construct: also called 4-1BB/CD137; not shown: Fc
T2 sequence (Q07011 24-186 limits assumed): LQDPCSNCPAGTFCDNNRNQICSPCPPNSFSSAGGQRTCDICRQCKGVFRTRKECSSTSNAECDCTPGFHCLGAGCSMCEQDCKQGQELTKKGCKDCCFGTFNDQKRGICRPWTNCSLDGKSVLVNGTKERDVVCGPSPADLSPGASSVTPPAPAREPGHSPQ
Method: as §1, §2

| Binder | ELISA ratio (target to background) [ratio] |
| --- | --- |
| SEQ ID NO 14 (designed binder) MGSWYEFRHRLWAIDQRLYALGGSEAELAAFEKEIAAFESELQAYKGKGNPEVEGLREAAAFIRAKLQAYRHN | 13 |
| SEQ ID NO 18 (designed binder) MGSWYEFHYRLHAIDQRLYALGGSEAELAAFEKEIAAFESELQAYKGKGNPEVEELRIKAAFIRDRLQAYRHN | 7.26 |
| SEQ ID NO 13 (designed binder) MGSWVEFANRLWAIDQRLFALGGSEAELAAFEKEIAAFESELQAYKGKGNPEVEHLRDQAAFIRHKLQAYRHN | 16.1 |
| SEQ ID NO 16 (designed binder) MGSWFEFNHRLWAINERLYALGGSEAELAAFEKEIAAFESELQAYKGKGNPEVERLRSMAAFIRYKLQAYRHN | 11.9 |
| SEQ ID NO 12 (designed binder) MGSWVEFGHRLWAIDQRLYALGGSEAELAAFEKEIAAFESELQAYKGKGNPEVEKLRQRAAFIRFRLQAYRHN | 20.6 |
| SEQ ID NO 15 (designed binder) MGSWYEFSMRLWAIDQRLYALGGSEAELAAFEKEIAAFESELQAYKGKGNPEVEALRAKAAYIRWKLQAYRHN | 12 |
| SEQ ID NO 17 (designed binder) MGSWYEFGHRLWAIDQRLYALGGSEAELAAFEKEIAAFESELQAYKGKGNPEVEYLRETAAHIRTRLQAYRHN | 7.71 |

These binders were tested against T3, PD-L1-Fc (UniProt Q9NZQ7 19-238) in the same assay as above.
T3 construct: purified recombinant target-Fc protein; also called FC-PD-L1; not shown: Fc
T3 sequence (Q9NZQ7 19-238 limits assumed): as the sequence (Q9NZQ7 19-238 limits assumed) above
Method: as §1, §2

| Binder | ELISA ratio (target to background) [ratio] |
| --- | --- |
| SEQ ID NO 38 (designed binder) MGSWTEFQSRLDAIHSRLRALGGSEAELAAFEKEIAAFESELQAYKGKGNPEVELLRDDAAFIRHFLQAYRHN | 8.68 |
| SEQ ID NO 41 (designed binder) MGSWFEFQDRLTAINERLSALGGSEAELAAFEKEIAAFESELQAYKGKGNPEVETLRSDAAFIRRFLQAYRHN | 6.01 |
| SEQ ID NO 39 (designed binder) MGSWQEFDDRLNAIKARLQALGGSEAELAAFEKEIAAFESELQAYKGKGNPEVEDLRDDAAFIRRFLQAYRHN | 7.41 |
| SEQ ID NO 40 (designed binder) MGSWYEFQNRLHAIHERLNALGGSEAELAAFEKEIAAFESELQAYKGKGNPEVELLRDDAAFIRHFLQAYRHN | 6.34 |
| SEQ ID NO 43 (designed binder) MGSWYEFNHRLDAISKRLNALGGSEAELAAFEKEIAAFESELQAYKGKGNPEVEELRGDAAFIRHFLQAYRHN | 2.98 |
| SEQ ID NO 42 (designed binder) MGSWYEFESRLDAIHERLHALGGSEAELAAFEKEIAAFESELQAYKGKGNPEVENLRGDAAFIRHFLQAYRHN | 4.88 |
| SEQ ID NO 44 (designed binder) MGSWFEFENRLHAIVHRLGALGGSEAELAAFEKEIAAFESELQAYKGKGNPEVETLRADAAFIRHYLQAYRHN | 2.76 |

Each binder was assayed against T4, CD137-Fc-His6 fusion protein (assay: biolayer interferometry (ForteBio), CD137-Fc-His6 immobilized via protein A, steady state fit).
T4 construct: Made in HEK293 cells, IMAC purified; also called CD137 target protein
Method: The binding of the eight his-tagged DBDpp ligands (SEQ ID NO:51-58) to the CD137 target protein was assessed using biolayer interferometry (ForteBio, Menlo Park, Calif.) according to established methods. The binding assay was constructed by immobilizing the CD137-Fc-His6 via protein A and then incubating in solutions of each of the DBDpp ligands for 5 minutes to measure the association (binding) phase. The sensors were then placed in buffer to monitor the dissociation phase and the complete sensorgrams (time in seconds on the X-axis and nm on the Y-axis) are shown in FIGS. 12A, 12C, 12E, 12G, 12I, 12K, 12M, and 12O for DBDpps of SEQ ID Nos: 51-58, respectively. The data was fitted by steady state analysis, which is depicted in each of FIGS. […], 12F, 12H, 12J, 12L, 12N, and 12P for the corresponding DBDpp.

| Binder | Kd [nM] |
| --- | --- |
| SEQ ID NO 58 (designed binder, E. coli, IMAC and HPLC purified; also called His-fusion of bb10) MGSWAEFKQRLAAIKTRLEALGGSEAELAAFLGEIWAFEMELAAYKGKGNPEVEALGREAAAIRMELQAYRHNGGGGSHHHHHH | 1700 |
| SEQ ID NO 53 (designed binder, E. coli, IMAC and HPLC purified) MGSWYEFRHRLWAIDQRLYALGGSEAELAAFEKEIAAFESELQAYKGKGNPEVEGLREAAAFIRAKLQAYRHNGGGGSHHHHHH | 140 |
| SEQ ID NO 56 (designed binder, E. coli, IMAC and HPLC purified) MGSWYEFGHRLWAIDQRLYALGGSEAELAAFEKEIAAFESELQAYKGKGNPEVEYLRETAAHIRTRLQAYRHNGGGGSHHHHHH | 770 |
| SEQ ID NO 54 (designed binder, E. coli, IMAC and HPLC purified) MGSWYEFSMRLWAIDQRLYALGGSEAELAAFEKEIAAFESELQAYKGKGNPEVEALRAKAAYIRWKLQAYRHNGGGGSHHHHHH | 400 |
| SEQ ID NO 52 (designed binder, E. coli, IMAC and HPLC purified) MGSWVEFANRLWAIDQRLFALGGSEAELAAFEKEIAAFESELQAYKGKGNPEVEHLRDQAAFIRHKLQAYRHNGGGGSHHHHHH | 460 |
| SEQ ID NO 55 (designed binder, E. coli, IMAC and HPLC purified) MGSWFEFNHRLWAINERLYALGGSEAELAAFEKEIAAFESELQAYKGKGNPEVERLRSMAAFIRYKLQAYRHNGGGGSHHHHHH | 170 |
| SEQ ID NO 51 (designed binder, E. coli, IMAC and HPLC purified) MGSWVEFGHRLWAIDQRLYALGGSEAELAAFEKEIAAFESELQAYKGKGNPEVEKLRQRAAFIRFRLQAYRHNGGGGSHHHHHH | 640 |
| SEQ ID NO 57 (designed binder, E. coli, IMAC and HPLC purified) MGSWYEFHYRLHAIDQRLYALGGSEAELAAFEKEIAAFESELQAYKGKGNPEVEELRIKAAFIRDRLQAYRHNGGGGSHHHHHH | 1000 |
